Experimental data taken from patent US20260174822A1.

Molecular target: GLP-1R on GeneBLAzer GLP-1R-CRE-bla CHO-K1 cells
Test: cell-based or functional assay

Row | EC50 of GLP-1R activation (460/530 ratio, GeneBLAzer GLP-1R-CRE-bla CHO-K1 reporter cells) [nM] | Substance
1 | 35.9 | GLP-1-RFRS-His protein (peptide)
2 | 192 | GLP-1-His protein (peptide)
